In the supplement of paper PMC12667976:

B1: library; numbered along this chain (parent)
chain: MATDAALRRLLRLHRTEIAVAVDSAFPLLHALADHDVVPEDKFQETLHLKEKEGCPQAFHALLSWLLTQDSTAILDFWRVLFKDYNLERYGRLQPILDSFPKDVDLSQPRKGRKPPAVPKALVPPPRLPTKRKASEEARAAAPAALTPRGTASPGSQLKAKPPKKPESSAEQQRLPLGNGIQTMSASVQRAVAMSSGDVPGARGAVEGILIQQVFESGGSKKCIQVGGEFYTPSKFEDSGSGKNKARSSSGPKPLVRAKGAQGAAPGGGEARLGQQGSVPAPLALPSDPQLHQKNEDECAVCRDGGELICCDGCPRAFHLACLSPPLREIPSGTWRCSSCLQATVQEVQPRAEEPRPQEPPVETPLPPGLRSAGEEVRGPPGEPLAGMDTTLVYKHLPAPPSAAPLPGLDSSALHPLLCVGPEGQQNLAPGARCGVCGDGTDVLRCTHCAAAFHWRCHFPAGTSRPGTGLRCRSCSGDVTPAPVEGVLAPSPARLAPGPAKDDTASHEPALHRDDLESLLSEHTFDGILQWAIQSMARPAAPFPS

Variants of: B1
Experiment: AIRE transcriptional activation functional score (insulin promoter-GFP; nonsense median 0, synonymous median 1) (normalised score); higher = higher AIRE activity (more reporter activation)
Conditions: with insulin promoter-GFP reporter in HEK293
Method in brief: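 Flp-In T-REx HEK293 landing-pad cells carrying an insulin core promoter-GFP reporter received codon-optimized AIRE NNN-codon libraries (three regions) through Bxb1 recombinase. Sorting of mCherry+, BFP− integrants took place at day 7, followed by 7 days of expansion and tile-sequencing of top 10% GFP and unselected integrant populations. A functional score was derived from select versus non-select variant enrichment with wild type subtracted. Values from variants reaching 10 counts per million in non-select were set to nonsense median 0 and synonymous median 1 and averaged over biological replicates.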

AIRE transcriptional activation functional score: each site, then its substitutions
W335: Y 0.768; I 1.02; E 1.3; K 1.12; P 1.04; V 1.24; A 1.3; H 0.428; F 0.764; R 1.29; M 1.39; N 0.721; C 1.24; S 1.27
G333: C 1.14; F 1.02; N 0.719; W 1.82; Q 0.597; R 1.08; I 0.774; K 1.24; T 0.561; Y 1.26; A 0.871; L 1.17; E 0.832; S 0.365; V 1.05; M 1.72; D 0.864; P 0.594
I330: V 0.684; K 0.557; T 0.637; F 0.831; P 1.33; G 1.16; Y 0.572; Q 0.577; R 1.07; A 0.828; C 0.866; W 0.987; S 0.814; D 0.391; N 0.89; E 0.403; L 0.906
C340: T 1.71; H 1.46; A 1.65; D 1.7; R 1.31; L 1.13; S 1.52; K 1.62; M 1.61; Q 1.33; W 0.727; F 0.877; I 1.22; E 1.49; V 1.42; G 1.44; P 1.49; N 1.67
T334: I 0.977; H 0.766; F 1.25; M 1.08; P 0.902; N 0.91; A 0.83; K 0.794; S 0.928; V 0.952; R 1.06; D 0.352; G 1.23; L 1.12; Q 0.621; W 1.39; C 0.7
